Results from patent publication US20120220489A1.

Legend:
[1] = target: ERK1 (p42) active (phospho), human, Active Motif 31 152 (human) (UniProt P27361); experiment: RPA, normal assay
[2] = target: ERK1 (p44) active (GST tagged), human, Invitrogen PV 3311 (human) (UniProt P27361); experiment: RPA, normal assay
[3] = target: ERK1 (p44) inactive (GST tagged), human, Invitrogen PV 3312 (human) (UniProt P27361); experiment: RPA, normal assay
[4] = target: ERK1 (p44), human, Cell Signaling Technology 7416 (human) (UniProt P27361); experiment: RPA, normal assay
[5] = target: ERK2 (p42), human, Biosource PHO 0104 (human) (UniProt P28482); experiment: RPA, normal assay
[6] = target: Erk1-BSA 2.7x peptide-protein conjugate (human; bovine); experiment: RPA, normal assay
[7] = target: Histone H3 recombinant protein, calf, Roche 11 034 758 001 (calf) (UniProt P68432); experiment: RPA, normal assay
[8] = target: Histone H3 recombinant protein, human, Upstate 14-494 (human) (UniProt P68431); experiment: RPA, normal assay
[9] = target: Histone H3-BSA 2.7x peptide-protein conjugate (bovine); experiment: RPA, normal assay
[10] = target: pRb recombinant protein, human, Active Motif 31 128 (human) (UniProt P06400); experiment: RPA, normal assay
[11] = target: pRb-BSA 1x peptide-protein conjugate (bovine); experiment: RPA, normal assay
[12] = target: ERK1 (p42) active (phospho), human, Active Motif 31 152 (human) (UniProt P27361); experiment: RPA, competition: +free Erk1 peptide 1000 nM
[13] = target: ERK1 (p44) active (GST tagged), human, Invitrogen PV 3311 (human) (UniProt P27361); experiment: RPA, competition: +free Erk1 peptide 1000 nM
[14] = target: ERK1 (p44) inactive (GST tagged), human, Invitrogen PV 3312 (human) (UniProt P27361); experiment: RPA, competition: +free Erk1 peptide 1000 nM
[15] = target: ERK1 (p44), human, Cell Signaling Technology 7416 (human) (UniProt P27361); experiment: RPA, competition: +free Erk1 peptide 1000 nM
[16] = target: ERK2 (p42), human, Biosource PHO 0104 (human) (UniProt P28482); experiment: RPA, competition: +free Erk1 peptide 1000 nM
[17] = target: Erk1-BSA 2.7x peptide-protein conjugate (human; bovine); experiment: RPA, competition: +free Erk1 peptide 1000 nM
[18] = target: Histone H3 recombinant protein, calf, Roche 11 034 758 001 (calf) (UniProt P68432); experiment: RPA, competition: +free Erk1 peptide 1000 nM
[19] = target: Histone H3 recombinant protein, human, Upstate 14-494 (human) (UniProt P68431); experiment: RPA, competition: +free Erk1 peptide 1000 nM
[20] = target: Histone H3-BSA 2.7x peptide-protein conjugate (bovine); experiment: RPA, competition: +free Erk1 peptide 1000 nM
[21] = target: pErk1/2-BSA 2.7x peptide-protein conjugate (human; bovine); experiment: RPA, competition: +free Erk1 peptide 1000 nM
[22] = target: pRb recombinant protein, human, Active Motif 31 128 (human) (UniProt P06400); experiment: RPA, competition: +free Erk1 peptide 1000 nM
[23] = target: pRb-BSA 1x peptide-protein conjugate (bovine); experiment: RPA, competition: +free Erk1 peptide 1000 nM
[24] = target: ERK1 (p42) active (phospho), human, Active Motif 31 152 (human) (UniProt P27361); experiment: RPA, competition: +recombinant protein 100 nM (not named)
[25] = target: ERK1 (p44) active (GST tagged), human, Invitrogen PV 3311 (human) (UniProt P27361); experiment: as above
[26] = target: ERK1 (p44) inactive (GST tagged), human, Invitrogen PV 3312 (human) (UniProt P27361); experiment: as above
[27] = target: ERK1 (p44), human, Cell Signaling Technology 7416 (human) (UniProt P27361); experiment: as above
[28] = target: ERK2 (p42), human, Biosource PHO 0104 (human) (UniProt P28482); experiment: as above
[29] = target: Erk1-BSA 2.7x peptide-protein conjugate (human; bovine); experiment: as above
[30] = target: Histone H3 recombinant protein, calf, Roche 11 034 758 001 (calf) (UniProt P68432); experiment: as above
[31] = target: Histone H3 recombinant protein, human, Upstate 14-494 (human) (UniProt P68431); experiment: as above
[32] = target: Histone H3-BSA 2.7x peptide-protein conjugate (bovine); experiment: as above
[33] = target: pErk1/2-BSA 2.7x peptide-protein conjugate (human; bovine); experiment: as above
[34] = target: pRb recombinant protein, human, Active Motif 31 128 (human) (UniProt P06400); experiment: as above
[35] = target: pRb-BSA 1x peptide-protein conjugate (bovine); experiment: as above

Sequence of UniProt P06400 (P06400 whole entry): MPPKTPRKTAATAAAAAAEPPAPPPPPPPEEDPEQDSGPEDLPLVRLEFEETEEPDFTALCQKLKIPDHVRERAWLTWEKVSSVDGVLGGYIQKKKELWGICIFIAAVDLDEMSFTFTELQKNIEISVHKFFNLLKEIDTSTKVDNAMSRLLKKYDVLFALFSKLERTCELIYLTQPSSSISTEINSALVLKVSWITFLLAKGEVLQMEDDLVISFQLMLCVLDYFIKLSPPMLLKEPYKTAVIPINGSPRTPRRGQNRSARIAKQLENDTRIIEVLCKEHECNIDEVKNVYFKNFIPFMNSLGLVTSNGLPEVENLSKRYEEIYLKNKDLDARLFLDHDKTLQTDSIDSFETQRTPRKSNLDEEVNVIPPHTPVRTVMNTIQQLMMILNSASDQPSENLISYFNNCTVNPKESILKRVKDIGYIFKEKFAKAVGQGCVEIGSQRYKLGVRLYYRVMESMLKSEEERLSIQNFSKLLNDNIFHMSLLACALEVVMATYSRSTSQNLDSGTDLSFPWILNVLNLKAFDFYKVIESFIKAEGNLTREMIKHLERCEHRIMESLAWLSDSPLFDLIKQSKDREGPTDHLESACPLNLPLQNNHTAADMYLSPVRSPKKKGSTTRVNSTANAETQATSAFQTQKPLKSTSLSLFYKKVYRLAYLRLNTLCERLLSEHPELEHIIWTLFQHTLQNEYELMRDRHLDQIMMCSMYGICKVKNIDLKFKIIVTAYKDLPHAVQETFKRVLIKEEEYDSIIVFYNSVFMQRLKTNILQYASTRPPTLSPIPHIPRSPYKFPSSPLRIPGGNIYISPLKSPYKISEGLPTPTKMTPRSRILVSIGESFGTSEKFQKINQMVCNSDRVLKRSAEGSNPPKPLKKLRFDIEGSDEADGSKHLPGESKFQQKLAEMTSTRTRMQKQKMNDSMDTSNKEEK
Sequence of Histone H3-BSA 2.7x peptide-protein conjugate (bovine) (P02769 25-607 limits assumed): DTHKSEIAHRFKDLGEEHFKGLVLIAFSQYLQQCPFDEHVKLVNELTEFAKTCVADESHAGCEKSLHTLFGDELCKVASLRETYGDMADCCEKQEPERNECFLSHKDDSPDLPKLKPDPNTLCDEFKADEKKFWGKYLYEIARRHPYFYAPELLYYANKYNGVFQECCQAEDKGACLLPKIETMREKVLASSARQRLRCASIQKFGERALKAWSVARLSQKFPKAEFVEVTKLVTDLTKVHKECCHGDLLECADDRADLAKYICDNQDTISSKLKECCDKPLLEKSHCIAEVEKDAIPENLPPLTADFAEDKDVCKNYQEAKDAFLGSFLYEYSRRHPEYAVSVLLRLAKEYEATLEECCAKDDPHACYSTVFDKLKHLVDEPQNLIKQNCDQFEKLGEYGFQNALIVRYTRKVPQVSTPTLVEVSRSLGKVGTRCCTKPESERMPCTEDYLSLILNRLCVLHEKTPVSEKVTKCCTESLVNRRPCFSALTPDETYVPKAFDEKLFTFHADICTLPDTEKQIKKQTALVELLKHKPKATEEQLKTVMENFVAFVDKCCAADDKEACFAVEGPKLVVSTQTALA
Sequence of pRb-BSA 1x peptide-protein conjugate (bovine) (P02769 25-607 limits assumed): as above
Sequence of pErk1/2-BSA 2.7x peptide-protein conjugate (human; bovine) (P02769 25-607 limits assumed): as above
Sequence of Erk1-BSA 2.7x peptide-protein conjugate (human; bovine) (peptide, as listed by the source limits assumed, chain 1 of 2): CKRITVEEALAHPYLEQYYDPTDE
Sequence of Erk1-BSA 2.7x peptide-protein conjugate (human; bovine) (P02769 25-607 limits assumed, chain 2 of 2): as the sequence (P02769 25-607 limits assumed) above
Sequence of UniProt P28482 (P28482 2-360 limits assumed): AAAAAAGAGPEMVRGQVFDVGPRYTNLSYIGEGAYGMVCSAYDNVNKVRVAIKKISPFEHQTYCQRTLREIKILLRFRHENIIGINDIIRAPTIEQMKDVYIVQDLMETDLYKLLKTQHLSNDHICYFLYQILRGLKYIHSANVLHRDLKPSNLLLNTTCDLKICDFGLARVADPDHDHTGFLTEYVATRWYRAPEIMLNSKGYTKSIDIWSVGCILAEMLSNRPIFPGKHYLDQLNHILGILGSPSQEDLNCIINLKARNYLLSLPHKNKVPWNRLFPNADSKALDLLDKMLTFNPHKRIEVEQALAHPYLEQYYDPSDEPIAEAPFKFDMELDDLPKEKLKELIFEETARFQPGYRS

Row | maximum standard curve signal [1] [RFI] | maximum standard curve signal [2] [RFI] | maximum standard curve signal [3] [RFI] | maximum standard curve signal [4] [RFI] | maximum standard curve signal [5] [RFI] | maximum standard curve signal [6] [RFI] | maximum standard curve signal [9] [RFI] | maximum standard curve signal [11] [RFI] | maximum standard curve signal [12] [RFI] | maximum standard curve signal [13] [RFI] | maximum standard curve signal [14] [RFI] | maximum standard curve signal [15] [RFI] | maximum standard curve signal [16] [RFI] | maximum standard curve signal [17] [RFI] | maximum standard curve signal [18] [RFI] | maximum standard curve signal [19] [RFI] | maximum standard curve signal [20] [RFI] | maximum standard curve signal [21] [RFI] | maximum standard curve signal [22] [RFI] | maximum standard curve signal [23] [RFI] | Substance | further results
1 | 0.22 | 5.17 | 7.12 | 0.04 | 1.51 | 2.77 | 0.01 | 0.01 | < 0.01 | 0.02 | 0.04 | < 0.01 | 0.01 | 0.01 | < 0.01 | < 0.01 | 0.01 | 0.01 | < 0.01 | 0.01 | p44/42 MAPK (Erk1/2) antibody, Cell Signaling Technology #4695, rabbit monoclonal | maximum standard curve signal [7]: 0.01 RFI; maximum standard curve signal [8]: 0.01 RFI; maximum standard curve signal [10]: 0.01 RFI; maximum standard curve signal [24]: 0.11 RFI; maximum standard curve signal [25]: 0.39 RFI; maximum standard curve signal [26]: 0.59 RFI; maximum standard curve signal [27]: 0.1 RFI; maximum standard curve signal [28]: 0.16 RFI; maximum standard curve signal [29]: 0.29 RFI; maximum standard curve signal [30]: 0.08 RFI; maximum standard curve signal [31]: 0.1 RFI; maximum standard curve signal [32]: 0.12 RFI; maximum standard curve signal [33]: 0.09 RFI; maximum standard curve signal [34]: 0.09 RFI; maximum standard curve signal [35]: 0.1 RFI
2 | 0.36 | 7.2 | 8.96 | 0.05 | 1.51 | 2.44 | 0.08 | 0.01 | 0.23 | 4.65 | 7.28 | 0.03 | 0.91 | 0.06 | < 0.01 | < 0.01 | 0.07 | 0.01 | < 0.01 | 0.01 | p44/42 MAPK (Erk1/2) antibody, Cell Signaling Technology #9102, rabbit polyclonal | maximum standard curve signal [24]: 0.03 RFI; maximum standard curve signal [25]: 0.11 RFI; maximum standard curve signal [26]: 0.19 RFI; maximum standard curve signal [27]: 0.03 RFI; maximum standard curve signal [28]: 0.07 RFI; maximum standard curve signal [29]: 0.12 RFI; maximum standard curve signal [30]: 0.03 RFI; maximum standard curve signal [31]: 0.03 RFI; maximum standard curve signal [32]: 0.1 RFI; maximum standard curve signal [33]: 0.04 RFI; maximum standard curve signal [34]: 0.04 RFI; maximum standard curve signal [35]: 0.04 RFI
